Measured values from PMC3670040, “Structure of Lipid Kinase p110β/p85β Elucidates an Unusual SH2-Domain-Mediated Inhibitory Mechanism” (Molecular Cell, 2011).

Test system: p110β
Assay: Mass spectrometry assay of PIP3 production in vitro, brain lipids
Format: biochemical, mouse
Conditions: 10 nM protein, 100 μM ATP, 1 mg/ml lipid, 60 min; Figure S3A
Experimental: Figure S3, Related to Figures 1 and 2. Lipid Kinase Assays for p110β/p85 Constructs
(A) Lipid kinase activity of the p110β/p85β-nic, p110β/p85β-ni and p110β/p85β-ic, p110β C-terminal truncation/p85β-nic (ΔCter) and kinase dead (D913N) constructs as determined by mass spectroscopy. Error bars in panel A and other panels indicate SEM of four replicates.
(1 picture or pasted object on this page, not shown here)
Vesicles were "brain lipids" as in Figure S2. The protein concentration was 10 nM with 100 μM ATP and 1 mg/ml lipid. Reactions were carried out for 60 min. The bars show the integrated areas for the stearoyl-arachidonyl PtdIns(3,4,5)P3 peak.
(B) ATPase activity (no lipid substrate) of the wild-type and kinase dead p110β/p85β-nic construct in the absence and presence of 10 μM PDGF bis-phosphopeptide. Protein concentration was 75 nM with 100 μM ATP. Shaded bars represent activity for reactions with 5 μM added PI3K inhibitor GDC0941.
(C) Lipid kinase activity of a p110β/p85-icSH2 complex in which p110β Kα7/Kα8 elbow (966-KTGN) was replaced by the elbow of p110α (968-AQECTK). […]
The PIP3 lipids produced in PI3K in vitro assays as described above were also measured by a mass-spectrometry based assay (Clark et al.). […]

B1: p110β-ΔCter/nic: truncation mutant lacking 17 residues from the p110β C terminus; human ΔCter (1-1053) used in cells (protein, UniProt P42338 1-1053, looked up, fragment)
chain: MCFSFIMPPAMADILDIWAVDSQIASDGSIPVDFLLPTGIYIQLEVPREATISYIKQMLWKQVHNYPMFNLLMDIDSYMFACVNQTAVYEELEDETRRLCDVRPFLPVLKLVTRSCDPGEKLDSKIGVLIGKGLHEFDSLKDPEVNEFRRKMRKFSEEKILSLVGLSWMDWLKQTYPPEHEPSIPENLEDKLYGGKLIVAVHFENCQDVFSFQVSPNMNPIKVNELAIQKRLTIHGKEDEVSPYDYVLQVSGRVEYVFGDHPLIQFQYIRNCVMNRALPHFILVECCKIKKMYEQEMIAIEAAINRNSSNLPLPLPPKKTRIISHVWENNNPFQIVLVKGNKLNTEETVKVHVRAGLFHGTELLCKTIVSSEVSGKNDHIWNEPLEFDINICDLPRMARLCFAVYAVLDKVKTKKSTKTINPSKYQTIRKAGKVHYPVAWVNTMVFDFKGQLRTGDIILHSWSSFPDELEEMLNPMGTVQTNPYTENATALHVKFPENKKQPYYYPPFDKIIEKAAEIASSDSANVSSRGGKKFLPVLKEILDRDPLSQLCENEMDLIWTLRQDCREIFPQSLPKLLLSIKWNKLEDVAQLQALLQIWPKLPPREALELLDFNYPDQYVREYAVGCLRQMSDEELSQYLLQLVQVLKYEPFLDCALSRFLLERALGNRRIGQFLFWHLRSEVHIPAVSVQFGVILEAYCRGSVGHMKVLSKQVEALNKLKTLNSLIKLNAVKLNRAKGKEAMHTCLKQSAYREALSDLQSPLNPCVILSELYVEKCKYMDSKMKPLWLVYNNKVFGEDSVGVIFKNGDDLRQDMLTLQMLRLMDLLWKEAGLDLRMLPYGCLATGDRSGLIEVVSTSETIADIQLNSSNVAAAAAFNKDALLNWLKEYNSGDDLDRAIEEFTLSCAGYCVASYVLGIGDRHSDNIMVKKTGQLFHIDFGHILGNFKSKFGIKRERVPFILTYDFIHVIQQGKTGNTEKFGRFRQCCEDAYLILRRHGNLFITLFALMLTAGLPELTSVKDIQYLKDSLALGKSEEEALKQFKQKFDEALRESW
activity with brain lipids: no measurable activity
